Experimental data taken from patent US7977317B2, “Compositions and methods for modulating blood-brain barrier transport” (Raptor Pharmaceutical Inc., priority 2001, dated 2011).

Tests used:
[1] = system: bovine brain capillary endothelial cell monolayers; assay: Competition of [125I]-p97 binding on bovine brain capillary endothelial cell monolayers; conditions: [125I]-p97 25 nM, 2 h at 4° C., competitor 7.5 micromolar (FIG. 3)
Method: FIG. 3. Binding of p97 on bovine brain capillary endothelial cell monolayers. Binding p97 was performed with BBCECs that were pre-incubated 2 hrs in Ringer-Hepes to avoid any interference from the astrocytes. For the binding experiments, cells were incubated for 2 h at 4° C. in Ringer/Hepes in the presence of [^125I]-p97 (25 nM) and 7.5 micromolar concentrations of cold-p97, transferrin or lactoferrin, respectively. At the end of the incubation, the filters were gently washed at 4° C. three times with 4 ml of cold-PBS. Then the associated radioactivity of endothelial cells was determined by removing the membrane of the culture insert and counting it in a gamma counter.
B. Binding studies of p97. Binding of p97 was performed with BBCECs and Rat Brain Endothelial Cells that were pre-incubated 2 hrs in Ringer/Hepes to avoid any interference from the astrocytes.
For the binding experiments, cells were incubated for 2 h at 4° C. in Ringer/Hepes in the presence of [^125I]-p97 (25 nM) and increasing concentrations of cold-p97 or high (7.5 micromolar) concentrations of transferrin or lactoferrin. At the end of the incubation, the filters were gently washed at 4° C. three times with 4 ml of cold-PBS. Then the associated radioactivity of endothelial cells was determined by removing the membrane of the culture insert and counting it in a gamma counter.

[2] = system: RBE4 cells; assay: Competition of [125I]-p97 binding on rat brain endothelial cells (RBE4); conditions: competitor 10 micromolar, 2 hrs at 4° C. (FIG. 4)
Method: FIG. 4. Binding of p97 on rat brain endothelial cells. Binding p97 was performed with RBE4 that were pre-incubated 2 hrs in Ringer-Hepes. For the binding experiments, cells in 24-well microplates were incubated for 2 h at 4° C. in Ringer/Hepes in the presence of [^125I]-p97 (25 nM) and 10 micromolar concentrations of cold-p97, transferrin or lactoferin, respectively. At the end of the incubation, the cells were gently washed at 4° C. three times with 4 ml of cold-PBS. RBE4 cells were then lysed with Triton X-100 and the associated radioactivity of with cell lysates was determined.
RBE4 cells were grown in monolayers in 24 wells plastic tissue culture flasks at 37° C. under 5% CO2 in minimum essential medium Alpha and Ham's F10 (1:1) supplemented with 10% heat inactivated fetal bovine serum. For p97 binding experiments, RBE4 cells were pre-incubated at 37° C. for 2 hrs in Ringer/Hepes. ^125I-p97 in 200 μl of Ringer/Hepes was added to RBE4 cells for 2 hrs at 4° C. in the presence or absence of high concentration of cold-p97, human holo-transferrin or human lactoferrin. After the incubation, the cells were washed 4 times with PBS and the ^125I-p97 associated with the cells was measured.

[3] = system: human brain capillaries; assay: Accumulation/uptake of [125I]-p97 in isolated human brain capillaries; format: binding; conditions: for Inhibition of [125I]-p97 binding/accumulation in human brain capillaries: competitor 5 micromolar, 100 nM p97, 1 h at 37° C. (FIG. 5)
Method: FIG. 5. Accumulation of p97 in human brain capillaries. Accumulation of [^125I]-p97 was measured at 37° C. for 1 h in isolated human brain capillaries (100 μg/assay). The incubation medium contained [^125I]-p97 and a final concentration of 100 nM p97 in Ringer/Hepes solution. The accumulation of [^125I]-p97 was performed in the presence or absence of 5 μm cold-p97, holo-transferrin or lactoferrin. […] The suspension was filtered under vacuum through a […] pore size Millipore filter. The filter was rinsed with 8 ml of stop solution, and the radioactivity was counted. Nonspecific binding of the radioactivity to the capillaries was determined by the addition of the ice-cold stop solution to the capillaries before adding the incubation medium. This value was subtracted from accumulation values obtained following an 1 h incubation. The results were expressed as ng of [^125I]-p97 accumulated per μg of brain capillaries.
FIG. 16 illustrates the identification of a p97 receptor according to ligand specificity. FIG. 16a, Uptake of [^125I]-p97 into human brain capillaries. The uptake of [^125I]-p97 at 100 nM (control) into isolated human brain capillaries was measured for 1 h at 37° C. in the presence of a 50-fold molar excess of unlabelled p97, human holo-transferrin or human lactoferrin. (*[…] Student's t-test (n=5); FIG. 16b, Effect of RAP on [^125I]-p97 transcytosis across BBCEC monolayers. Apical-to-basal transport of [^125I]-p97 was measured in the presence (closed circles) or absence (open circles) of RAP (25 μg/ml) (n=5); FIG. 16c, Inhibition of bovine [^125I]-lactoferrin transport by p97. Transcytosis of bovine [^125I]-lactoferrin (50 nM) was measured in the presence (closed circles) or absence (open circles) of unlabelled p97 (5 μM) at 37° C. (n=3).
A. Isolation of human brain capillaries. […]
B. p97 accumulation in human brain capillaries. […] Accumulation of [^125I]-p97 was measured at 37° C. for 1 h in isolated human brain capillaries (100 μg/assay). […]

Row | Inhibition of [125I]-p97 binding/accumulation in human brain capillaries [3] | Competition with p97 for receptor binding in human brain capillaries, repeat experiment ([3]; performed identically to FIG. 5 (FIG. 6)) | Molecule | Inhibition of [125I]-p97 binding to BBCECs [1] | Inhibition of [125I]-p97 binding to RBE4 cells [2]
1 | significantly inhibits | – | p97: recombinant human melanotransferrin (p97), provided by Synapse Technologies (protein, UniProt P08582 20-709, looked up) Melanotransferrin: GMEVRWCATSDPEQHKCGNMSEAFREAGIQPSLLCVRGTSADHCVQLIAAQEADAITLDGGAIYEAGKEHGLKPVVGEVYDQEVGTSYYAVAVVRRSSHVTIDTLKGVKSCHTGINRTVGWNVPVGYLVESGRLSVMGCDVLKAVSDYFGGSCVPGAGETSYSESLCRLCRGDSSGEGVCDKSPLERYYDYSGAFRCLAEGAGDVAFVKHSTVLENTDGKTLPSWGQALLSQDFELLCRDGSRADVTEWRQCHLARVPAHAVVVRADTDGGLIFRLLNEGQRLFSHEGSSFQMFSSEAYGQKDLLFKDSTSELVPIATQTYEAWLGHEYLHAMKGLLCDPNRLPPYLRWCVLSTPEIQKCGDMAVAFRRQRLKPEIQCVSAKSPQHCMERIQAEQVDAVTLSGEDIYTAGKTYGLVPAAGEHYAPEDSSNSYYVVAVVRRDSSHAFTLDELRGKRSCHAGFGSPAGWDVPVGALIQRGFIRPKDCDVLTAVSEFFNASCVPVNNPKNYPSSLCALCVGDEQGRNKCVGNSQERYYGYRGAFRCLVENAGDVAFVRHTTVFDNTNGHNSEPWAAELRSEDYELLCPNGARAEVSQFAACNLAQIPPHAVMVRPDTNIFTVYGLLDKAQDLFGDDHNKNGFKMFDSSNYHGQDLLFKDATVRAVPVGEKTTYRGWLGLDYVAALEGMSSQQC | competitively inhibited | competitively inhibit
2 | significantly inhibits | competes | lactoferrin: lactoferrin (Lf), LRP ligand used as competitor (protein, UniProt P02788 20-710, looked up) Lactotransferrin: GRRRSVQWCAVSQPEATKCFQWQRNMRKVRGPPVSCIKRDSPIQCIQAIAENRADAVTLDGGFIYEAGLAPYKLRPVAAEVYGTERQPRTHYYAVAVVKKGGSFQLNELQGLKSCHTGLRRTAGWNVPIGTLRPFLNWTGPPEPIEAAVARFFSASCVPGADKGQFPNLCRLCAGTGENKCAFSSQEPYFSYSGAFKCLRDGAGDVAFIRESTVFEDLSDEAERDEYELLCPDNTRKPVDKFKDCHLARVPSHAVVARSVNGKEDAIWNLLRQAQEKFGKDKSPKFQLFGSPSGQKDLLFKDSAIGFSRVPPRIDSGLYLGSGYFTAIQNLRKSEEEVAARRARVVWCAVGEQELRKCNQWSGLSEGSVTCSSASTTEDCIALVLKGEADAMSLDGGYVYTAGKCGLVPVLAENYKSQQSSDPDPNCVDRPVEGYLAVAVVRRSDTSLTWNSVKGKKSCHTAVDRTAGWNIPMGLLFNQTGSCKFDEYFSQSCAPGSDPRSNLCALCIGDEQGENKCVPNSNERYYGYTGAFRCLAENAGDVAFVKDVTVLQNTDGNNNEAWAKDLKLADFALLCLDGKRKPVTEARSCHLAMAPNHAVVSRMDKVERLKQVLLHQQAKFGRNGSDCPDKFCLFQSETKNLLFNDNTECLARLHGKTTYEKYLGPQYVAGITNLKKCSTSPLLEACEFLRK | competitively inhibited | competitively inhibit
